Experimental data as given in paper PMC4267655, “Brr2p carboxy-terminal Sec63 domain modulates Prp16 splicing RNA helicase” (Nucleic Acids Research, 2014).
Numbering of substitutions follows the chain as printed. Names and notes keep the numbering of the source.

T1: Prp22p (Saccharomyces cerevisiae, UniProt P24384)
T1 construct: gene PRP22; recombinant from E. coli BL21 RIL, purified as previously described
T1 sequence (P24384 1-1145): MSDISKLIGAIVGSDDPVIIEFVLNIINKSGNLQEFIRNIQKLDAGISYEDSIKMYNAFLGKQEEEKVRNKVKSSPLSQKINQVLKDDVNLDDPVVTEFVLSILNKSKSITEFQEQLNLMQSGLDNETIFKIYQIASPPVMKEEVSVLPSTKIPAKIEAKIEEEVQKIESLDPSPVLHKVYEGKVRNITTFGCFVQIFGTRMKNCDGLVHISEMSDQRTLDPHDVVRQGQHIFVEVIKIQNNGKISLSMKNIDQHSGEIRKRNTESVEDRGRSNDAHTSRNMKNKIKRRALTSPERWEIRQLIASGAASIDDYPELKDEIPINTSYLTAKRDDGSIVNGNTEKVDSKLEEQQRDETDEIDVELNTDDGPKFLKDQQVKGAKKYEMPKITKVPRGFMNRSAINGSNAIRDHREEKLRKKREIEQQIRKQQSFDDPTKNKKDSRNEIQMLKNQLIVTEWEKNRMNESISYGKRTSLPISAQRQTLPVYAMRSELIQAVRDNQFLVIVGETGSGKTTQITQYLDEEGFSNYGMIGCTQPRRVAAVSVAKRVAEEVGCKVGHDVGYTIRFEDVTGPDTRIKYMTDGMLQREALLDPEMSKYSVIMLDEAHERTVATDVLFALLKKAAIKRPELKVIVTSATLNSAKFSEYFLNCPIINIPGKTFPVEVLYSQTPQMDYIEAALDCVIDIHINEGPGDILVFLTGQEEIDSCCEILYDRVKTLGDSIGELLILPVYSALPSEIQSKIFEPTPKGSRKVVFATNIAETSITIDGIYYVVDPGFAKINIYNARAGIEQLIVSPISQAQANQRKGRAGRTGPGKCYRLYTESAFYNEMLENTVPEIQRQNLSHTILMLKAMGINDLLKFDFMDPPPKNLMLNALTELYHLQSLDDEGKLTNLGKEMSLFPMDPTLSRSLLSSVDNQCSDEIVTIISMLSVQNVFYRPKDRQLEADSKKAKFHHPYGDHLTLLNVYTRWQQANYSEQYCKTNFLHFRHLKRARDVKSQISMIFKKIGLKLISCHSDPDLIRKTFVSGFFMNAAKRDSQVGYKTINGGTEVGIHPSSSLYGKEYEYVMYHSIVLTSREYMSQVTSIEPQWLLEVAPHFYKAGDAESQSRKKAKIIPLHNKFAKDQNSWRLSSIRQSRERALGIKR

T2: recombinant Prp16p (wild type) (budding yeast, UniProt P15938 1-1071)
T2 construct: Prp16p, budding yeast; also called WT Prp16p; source: E. coli BL21 RIL, purified (NiNTA-agarose)
T2 sequence (looked up): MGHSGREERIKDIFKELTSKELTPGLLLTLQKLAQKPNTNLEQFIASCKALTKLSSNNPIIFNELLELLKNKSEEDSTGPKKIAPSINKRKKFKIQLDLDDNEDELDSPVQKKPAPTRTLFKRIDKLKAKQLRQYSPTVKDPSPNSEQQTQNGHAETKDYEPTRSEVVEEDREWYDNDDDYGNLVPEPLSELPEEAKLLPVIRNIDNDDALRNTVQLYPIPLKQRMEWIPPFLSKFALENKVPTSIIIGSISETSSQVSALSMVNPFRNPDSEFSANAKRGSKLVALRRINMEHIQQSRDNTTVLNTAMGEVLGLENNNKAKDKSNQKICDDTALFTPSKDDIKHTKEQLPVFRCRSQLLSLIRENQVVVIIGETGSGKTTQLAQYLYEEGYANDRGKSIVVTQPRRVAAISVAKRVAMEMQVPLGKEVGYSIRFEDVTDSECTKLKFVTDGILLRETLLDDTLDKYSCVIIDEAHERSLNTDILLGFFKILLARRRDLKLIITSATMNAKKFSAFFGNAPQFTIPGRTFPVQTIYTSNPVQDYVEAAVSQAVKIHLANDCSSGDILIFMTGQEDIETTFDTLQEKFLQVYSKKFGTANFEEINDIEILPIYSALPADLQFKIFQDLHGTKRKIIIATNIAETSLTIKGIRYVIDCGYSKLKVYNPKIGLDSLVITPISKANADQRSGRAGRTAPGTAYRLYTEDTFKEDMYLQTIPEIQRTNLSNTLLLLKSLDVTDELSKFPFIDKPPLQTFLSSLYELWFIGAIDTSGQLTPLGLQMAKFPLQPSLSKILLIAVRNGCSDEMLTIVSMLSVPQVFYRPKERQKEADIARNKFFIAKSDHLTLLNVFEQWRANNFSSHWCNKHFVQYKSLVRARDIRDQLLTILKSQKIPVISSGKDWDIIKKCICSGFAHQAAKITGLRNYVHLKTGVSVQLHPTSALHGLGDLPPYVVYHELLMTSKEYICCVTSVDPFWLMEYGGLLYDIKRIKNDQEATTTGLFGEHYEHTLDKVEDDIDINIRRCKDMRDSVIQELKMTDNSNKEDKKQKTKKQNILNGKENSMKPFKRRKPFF

T3: Prp16p (UniProt P15938 1-1071)
T3 sequence: T2 sequence (looked up)

B1: m21; m1 Prp16p:R456K; Prp16p:G691R; Brr2 H2-Sec63-2:R1899G (protein)
chain: T2 sequence (looked up) with R456K, G691R
B2: m21; m1 Prp16p:R456K; Prp16p:G691R; Brr2 H2-Sec63-2:L1951P (protein)
chain: T2 sequence (looked up) with R456K, G691R
B3: m21; m1 Prp16p:Q685H; Brr2 H2-Sec63-2:L1951P (protein)
chain: T2 sequence (looked up) with Q685H
B4: m21; m1 Prp16p:D473E; Brr2 H2-Sec63-2:R1899G (protein)
chain: T2 sequence (looked up) with D473E
B5: m21; m1 Prp16p:R686Q; Brr2 H2-Sec63-2:L1951P (protein)
chain: T2 sequence (looked up) with R686Q
B6: m21; m1 Prp16p:Q685H; Brr2 H2-Sec63-2:R1899G (protein)
chain: T2 sequence (looked up) with Q685H
B7: m21; m1 Prp16p:D473E; Brr2 H2-Sec63-2:L1951P (protein)
chain: T2 sequence (looked up) with D473E
B8: Prp16p (Saccharomyces cerevisiae S288C) (protein)
chain: T2 sequence (looked up)
notes: recombinant from E. coli BL21 RIL, NiNTA purified (His-tagged)
B9: m21; m1 Prp16p:R686I; Brr2 H2-Sec63-2:L1951P (protein)
chain: T2 sequence (looked up) with R686I
B10: m21; m1 Prp16p:R686Q; Brr2 H2-Sec63-2:R1899G (protein)
chain: T2 sequence (looked up) with R686Q
B11: m21; m1 Prp16p:R686I; Brr2 H2-Sec63-2:R1899G (protein)
chain: T2 sequence (looked up) with R686I
B12: recombinant Brr2 Sec63-2p (domain or fragment, budding yeast, UniProt P32639 1846-2160, looked up)
chain: TLSNGLIASHYGVSFFTIQSFVSSLSNTSTLKNMLYVLSTAVEFESVPLRKGDRALLVKLSKRLPLRFPEHTSSGSVSFKVFLLLQAYFSRLELPVDFQNDLKDILEKVVPLINVVVDILSANGYLNATTAMDLAQMLIQGVWDVDNPLRQIPHFNNKILEKCKEINVETVYDIMALEDEERDEILTLTDSQLAQVAAFVNNYPNVELTYSLNNSDSLISGVKQKITIQLTRDVEPENLQVTSEKYPFDKLESWWLVLGEVSKKELYAIKKVTLNKETQQYELEFDTPTSGKHNLTIWCVCDSYLDADKELSFEI
notes: Brr2p, budding yeast, carboxy-terminal Sec63-2 domain; detected with anti-His-HRP antibodies; also called WT Sec63-2p; Brr2 Sec63-2p domain; source: E. coli BL21 RIL, purified (Hi-Trap IMAC HP charged with Ni)
B13: recombinant Brr2 Sec63-2 R1899Gp (domain or fragment, budding yeast, UniProt P32639 1846-2160, looked up)
chain: B12 chain with R54G
notes: Brr2p, budding yeast, carboxy-terminal Sec63-2 domain; also called Sec63-2 R1899G mutant protein; Brr2-R1899G mutant protein; source: E. coli BL21 RIL, purified (Hi-Trap IMAC HP charged with Ni)
B14: 44-nt ssRNA (ssRNA)
RNA: GGGCGAAUUCAAAACAAAACAAAACUAGCACCGUAAAGCAAGCU

Columns and labels:
Prp22p = molecular target: T1, Prp22p; experiment: ATPase assay, released Pi; format: biochemical; details: 1 mM ATP, 50 ng/μl total yeast RNA, 20 mM Tris-HCl pH 7.5, 75 mM KCl, 1 mM MgSO4, 30°C
Ded1p = molecular target: T4, Ded1p (Saccharomyces cerevisiae, UniProt P06634); experiment: ATPase assay, released Pi; format: biochemical; details: 5 nM enzyme, 1 mM ATP, 50 ng/μl total yeast RNA, 20 mM Tris-HCl pH 7.5, 50 mM KAc, 1 mM MgOAc, 30°C
T4 construct: gene DED1; recombinant from E. coli BL21 RIL, purified as previously described
T4 sequence (P06634 2-604): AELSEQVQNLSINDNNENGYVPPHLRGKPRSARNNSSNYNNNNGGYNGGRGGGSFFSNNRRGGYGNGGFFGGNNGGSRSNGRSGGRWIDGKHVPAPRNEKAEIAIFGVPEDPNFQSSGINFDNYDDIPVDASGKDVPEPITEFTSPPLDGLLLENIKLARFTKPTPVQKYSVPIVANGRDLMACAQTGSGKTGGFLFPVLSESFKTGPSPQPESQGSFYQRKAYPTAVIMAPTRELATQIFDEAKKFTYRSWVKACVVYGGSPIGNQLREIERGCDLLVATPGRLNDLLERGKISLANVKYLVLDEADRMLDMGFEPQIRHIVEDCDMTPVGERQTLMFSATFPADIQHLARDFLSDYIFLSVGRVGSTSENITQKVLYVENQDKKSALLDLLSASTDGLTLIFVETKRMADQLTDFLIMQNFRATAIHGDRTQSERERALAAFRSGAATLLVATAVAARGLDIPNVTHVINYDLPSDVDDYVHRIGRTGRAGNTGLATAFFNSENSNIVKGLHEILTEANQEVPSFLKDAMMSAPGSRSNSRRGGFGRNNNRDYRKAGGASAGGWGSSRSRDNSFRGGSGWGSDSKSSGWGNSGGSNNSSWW

[1] = molecular target: Brr2 H2-Sec63-2p R1899G, Gal4AD-prey fusion, P32639; experiment: Y2H interaction assay; details: chain shown with the change; growth on -LWH medium with 3-AT; parent: 50.0
Sequence of Brr2 H2-Sec63-2p R1899G, Gal4AD-prey fusion, P32639 (P32639 whole entry R1899G, the tested form may be a part): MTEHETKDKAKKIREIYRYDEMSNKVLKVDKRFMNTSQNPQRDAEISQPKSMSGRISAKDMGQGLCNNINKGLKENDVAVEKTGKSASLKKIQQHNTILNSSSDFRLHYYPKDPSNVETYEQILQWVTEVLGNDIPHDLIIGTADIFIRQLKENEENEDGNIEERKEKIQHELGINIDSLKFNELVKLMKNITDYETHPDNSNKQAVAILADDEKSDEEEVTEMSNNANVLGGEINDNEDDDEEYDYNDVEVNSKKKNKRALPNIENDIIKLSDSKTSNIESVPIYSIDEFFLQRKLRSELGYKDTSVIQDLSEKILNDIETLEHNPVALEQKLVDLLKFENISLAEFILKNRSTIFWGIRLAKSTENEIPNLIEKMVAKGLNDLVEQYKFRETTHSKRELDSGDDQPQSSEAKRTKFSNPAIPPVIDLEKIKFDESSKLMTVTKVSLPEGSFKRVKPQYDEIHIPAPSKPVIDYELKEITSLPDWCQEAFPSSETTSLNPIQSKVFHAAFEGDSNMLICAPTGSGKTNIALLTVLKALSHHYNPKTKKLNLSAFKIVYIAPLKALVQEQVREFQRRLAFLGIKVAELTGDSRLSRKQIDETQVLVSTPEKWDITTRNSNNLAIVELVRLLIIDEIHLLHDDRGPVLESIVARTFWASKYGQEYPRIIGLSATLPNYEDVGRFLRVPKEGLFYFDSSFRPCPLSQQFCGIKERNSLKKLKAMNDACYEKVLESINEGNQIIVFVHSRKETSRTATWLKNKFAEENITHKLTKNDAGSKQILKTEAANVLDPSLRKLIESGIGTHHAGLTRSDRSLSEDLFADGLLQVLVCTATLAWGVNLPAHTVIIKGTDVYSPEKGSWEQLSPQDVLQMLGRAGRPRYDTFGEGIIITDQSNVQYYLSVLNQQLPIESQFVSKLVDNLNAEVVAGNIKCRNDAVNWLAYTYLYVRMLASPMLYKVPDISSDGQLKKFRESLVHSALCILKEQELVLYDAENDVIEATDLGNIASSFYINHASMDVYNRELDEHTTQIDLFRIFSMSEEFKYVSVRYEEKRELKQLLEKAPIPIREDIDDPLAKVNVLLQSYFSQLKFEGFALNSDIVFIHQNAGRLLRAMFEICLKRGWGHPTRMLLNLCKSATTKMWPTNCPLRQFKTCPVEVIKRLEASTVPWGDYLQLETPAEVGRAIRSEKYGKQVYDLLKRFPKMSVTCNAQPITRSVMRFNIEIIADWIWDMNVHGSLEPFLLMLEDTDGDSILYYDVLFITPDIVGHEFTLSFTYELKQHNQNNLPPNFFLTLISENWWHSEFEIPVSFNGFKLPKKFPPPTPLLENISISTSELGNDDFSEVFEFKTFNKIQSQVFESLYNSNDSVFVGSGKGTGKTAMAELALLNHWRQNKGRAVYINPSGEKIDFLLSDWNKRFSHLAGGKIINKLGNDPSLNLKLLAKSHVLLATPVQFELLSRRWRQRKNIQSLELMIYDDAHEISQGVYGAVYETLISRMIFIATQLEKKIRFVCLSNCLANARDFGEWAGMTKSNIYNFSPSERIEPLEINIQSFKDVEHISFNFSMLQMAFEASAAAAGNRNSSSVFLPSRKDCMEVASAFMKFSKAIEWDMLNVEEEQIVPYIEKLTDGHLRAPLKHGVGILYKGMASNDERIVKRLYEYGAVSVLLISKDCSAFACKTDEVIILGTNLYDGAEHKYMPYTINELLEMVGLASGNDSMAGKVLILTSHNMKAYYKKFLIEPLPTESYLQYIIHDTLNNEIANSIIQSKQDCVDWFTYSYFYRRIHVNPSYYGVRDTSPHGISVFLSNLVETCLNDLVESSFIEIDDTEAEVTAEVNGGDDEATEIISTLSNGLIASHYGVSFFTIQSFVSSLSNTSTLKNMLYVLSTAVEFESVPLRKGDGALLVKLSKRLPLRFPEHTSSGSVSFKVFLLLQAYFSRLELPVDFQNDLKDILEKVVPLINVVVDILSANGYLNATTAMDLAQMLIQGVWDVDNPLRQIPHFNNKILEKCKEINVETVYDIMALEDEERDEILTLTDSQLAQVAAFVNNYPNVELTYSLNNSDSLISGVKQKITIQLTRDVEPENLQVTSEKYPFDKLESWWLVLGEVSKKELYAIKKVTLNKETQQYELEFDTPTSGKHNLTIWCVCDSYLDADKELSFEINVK

[2] = molecular target: Brr2 H2-Sec63-2p L1951P, Gal4AD-prey fusion, P32639; experiment: Y2H interaction assay; details: chain shown with the change; growth on -LWH medium with 3-AT; parent: 50.0
Sequence of Brr2 H2-Sec63-2p L1951P, Gal4AD-prey fusion, P32639 (P32639 whole entry L1951P, the tested form may be a part): as the sequence (P32639 whole entry R1899G, the tested form may be a part) above, with G1899R, L1951P counted along it

[3] = substrate: Nc1ncnc2c1ncn2[C@@H]1O[C@H](COP(=O)(O)OP(=O)(O)OP(=O)(O)O)[C@@H](O)[C@H]1O; experiment: ATPase assay, released Pi; format: biochemical, Saccharomyces cerevisiae; details: 10 nM enzyme, 50 ng/μl total yeast RNA, no Sec63-2p, 20 mM Tris-HCl pH 7.5, 75 mM KCl, 1 mM MgSO4, 30°C
Description: ATPase assay, released Pi on Prp16p

[4] = molecular target: T2, recombinant Prp16p (wild type); experiment: native gel or EMSA; apparent; Prp16p (300 nM) with 2-nM 32P-labelled 44-nt ssRNA and increasing amounts of Sec63-2p or Sec63-2 R1899Gp; loss of the Prp16p-RNA complex; buffer of the Prp16p ATPase assay without ATP; details: both partners purified
[5] = molecular target: T2, recombinant Prp16p (wild type); experiment: cell-based or functional assay
Prp16p = molecular target: T3, Prp16p; experiment: EMSA; no ATP; 2 nM RNA; EMSA in the Prp16p ATPase assay buffer without ATP (composition, pH and temperature not in the material), 2 nM 5' 32P-labeled RNA; details: protein: recombinant; tags: His (pET22b-PRP16-His); label: 5' 32P; single stranded

Molecule | other: maximal [3AT] tolerated [1] [mM] | other: maximal [3AT] tolerated [2] [µM] | also measured
Nc1ncnc2c1ncn2[C@@H]1O[C@H](COP(=O)(O)OP(=O)(O)OP(=O)(O)O)[C@@H](O)[C@H]1O [ATP] | – | – | ATPase assay, released Pi (Prp22p): no effect of Sec63-2p on the ATPase activities of Ded1p; ATPase assay, released Pi (Ded1p): no effect of Sec63-2p on the ATPase activities of Ded1p
B1 | 0 | – | –
B2 | – | 0 | –
B3 | – | 0 | –
B4 | 10 | – | –
B5 | – | 200 | –
B6 | 100 | – | –
B7 | – | 0 | –
B8 | – | – | Km [3]: 751 ± 181 µM; kcat [3]: 3.05 ± 0.683 s⁻¹
B9 | – | 200 | –
B10 | 50 | – | –
B11 | 75 | – | –
B12 | – | – | Kd (dissociation constant) [4]: 0.479 ± 0.002 µM; ATPase activity of Prp16p (10 nM) in vitro with increasing molar excess of Sec63-2p, in presence of 50-ng/μl total yeast RNA [5]: 2 fold
B13 | – | – | Kd (dissociation constant) [4]: 3.097 ± 0.003 µM
B14 | – | – | binding result (Prp16p): binds
